B1: GLS3000 G89W (antibody, IgG1, name in Kabat numbering, V domains shown)
VH: QVQLVESGGGVVQPGRSLRLSCAASGFTFSNAWMHWVRQAPGKGLEWVAQIKAKSNNYATYYAESVKGRFTISRDDSKNSLYLQMNSLKTEDTAVYYCRYVHYGAYYGVDAWGQGTTVTVSS
VL: DIVMTQSPLSLPVTPGEPASISCRSSQSLVHSNRNTYLHWYQQKPGQAPRLLIYKVSNRFSGVPDRFSGSGSGTDFTLKISRVEAEDVGVYYCWQGTQVPYTFGQGTKLEIK
B2: GLS3000 L33P (antibody, IgG1, name in Kabat numbering, V domains shown)
VH: QVQLVESGGGVVQPGRSLRLSCAASGFTFSNAWMHWVRQAPGKGLEWVAQIKAKSNNYATYYAESVKGRFTISRDDSKNSLYLQMNSLKTEDTAVYYCRYVHYGAYYGVDAWGQGTTVTVSS
VL: DIVMTQSPLSLPVTPGEPASISCRSSQSLVHSNRNTYPHWYQQKPGQAPRLLIYKVSNRFSGVPDRFSGSGSGTDFTLKISRVEAEDVGVYYCGQGTQVPYTFGQGTKLEIK
B3: GLS3000 P95E (antibody, IgG1, name in Kabat numbering, V domains shown)
VH: QVQLVESGGGVVQPGRSLRLSCAASGFTFSNAWMHWVRQAPGKGLEWVAQIKAKSNNYATYYAESVKGRFTISRDDSKNSLYLQMNSLKTEDTAVYYCRYVHYGAYYGVDAWGQGTTVTVSS
VL: DIVMTQSPLSLPVTPGEPASISCRSSQSLVHSNRNTYLHWYQQKPGQAPRLLIYKVSNRFSGVPDRFSGSGSGTDFTLKISRVEAEDVGVYYCGQGTQVEYTFGQGTKLEIK
B4: GLS3000 H34M (antibody, IgG1, name in Kabat numbering, V domains shown)
VH: QVQLVESGGGVVQPGRSLRLSCAASGFTFSNAWMHWVRQAPGKGLEWVAQIKAKSNNYATYYAESVKGRFTISRDDSKNSLYLQMNSLKTEDTAVYYCRYVHYGAYYGVDAWGQGTTVTVSS
VL: DIVMTQSPLSLPVTPGEPASISCRSSQSLVHSNRNTYLMWYQQKPGQAPRLLIYKVSNRFSGVPDRFSGSGSGTDFTLKISRVEAEDVGVYYCGQGTQVPYTFGQGTKLEIK
B5: GLS3000 G89Y (antibody, IgG1, name in Kabat numbering, V domains shown)
VH: QVQLVESGGGVVQPGRSLRLSCAASGFTFSNAWMHWVRQAPGKGLEWVAQIKAKSNNYATYYAESVKGRFTISRDDSKNSLYLQMNSLKTEDTAVYYCRYVHYGAYYGVDAWGQGTTVTVSS
VL: DIVMTQSPLSLPVTPGEPASISCRSSQSLVHSNRNTYLHWYQQKPGQAPRLLIYKVSNRFSGVPDRFSGSGSGTDFTLKISRVEAEDVGVYYCYQGTQVPYTFGQGTKLEIK
B6: GLS3000 T92Y (antibody, IgG1, name in Kabat numbering, V domains shown)
VH: QVQLVESGGGVVQPGRSLRLSCAASGFTFSNAWMHWVRQAPGKGLEWVAQIKAKSNNYATYYAESVKGRFTISRDDSKNSLYLQMNSLKTEDTAVYYCRYVHYGAYYGVDAWGQGTTVTVSS
VL: DIVMTQSPLSLPVTPGEPASISCRSSQSLVHSNRNTYLHWYQQKPGQAPRLLIYKVSNRFSGVPDRFSGSGSGTDFTLKISRVEAEDVGVYYCGQGYQVPYTFGQGTKLEIK
B7: GLS3000 H34E (antibody, IgG1, name in Kabat numbering, V domains shown)
VH: QVQLVESGGGVVQPGRSLRLSCAASGFTFSNAWMHWVRQAPGKGLEWVAQIKAKSNNYATYYAESVKGRFTISRDDSKNSLYLQMNSLKTEDTAVYYCRYVHYGAYYGVDAWGQGTTVTVSS
VL: DIVMTQSPLSLPVTPGEPASISCRSSQSLVHSNRNTYLEWYQQKPGQAPRLLIYKVSNRFSGVPDRFSGSGSGTDFTLKISRVEAEDVGVYYCGQGTQVPYTFGQGTKLEIK
B8: GLS3000 G91S (antibody, IgG1, name in Kabat numbering, V domains shown)
VH: QVQLVESGGGVVQPGRSLRLSCAASGFTFSNAWMHWVRQAPGKGLEWVAQIKAKSNNYATYYAESVKGRFTISRDDSKNSLYLQMNSLKTEDTAVYYCRYVHYGAYYGVDAWGQGTTVTVSS
VL: DIVMTQSPLSLPVTPGEPASISCRSSQSLVHSNRNTYLHWYQQKPGQAPRLLIYKVSNRFSGVPDRFSGSGSGTDFTLKISRVEAEDVGVYYCGQSTQVPYTFGQGTKLEIK
B9: GLS3000 H34R (antibody, IgG1, name in Kabat numbering, V domains shown)
VH: QVQLVESGGGVVQPGRSLRLSCAASGFTFSNAWMHWVRQAPGKGLEWVAQIKAKSNNYATYYAESVKGRFTISRDDSKNSLYLQMNSLKTEDTAVYYCRYVHYGAYYGVDAWGQGTTVTVSS
VL: DIVMTQSPLSLPVTPGEPASISCRSSQSLVHSNRNTYLRWYQQKPGQAPRLLIYKVSNRFSGVPDRFSGSGSGTDFTLKISRVEAEDVGVYYCGQGTQVPYTFGQGTKLEIK
B10: GLS3000 N30Y (antibody, IgG1, name in Kabat numbering, V domains shown)
VH: QVQLVESGGGVVQPGRSLRLSCAASGFTFSNAWMHWVRQAPGKGLEWVAQIKAKSNNYATYYAESVKGRFTISRDDSKNSLYLQMNSLKTEDTAVYYCRYVHYGAYYGVDAWGQGTTVTVSS
VL: DIVMTQSPLSLPVTPGEPASISCRSSQSLVHSNRYTYLHWYQQKPGQAPRLLIYKVSNRFSGVPDRFSGSGSGTDFTLKISRVEAEDVGVYYCGQGTQVPYTFGQGTKLEIK
B11: GLS3000 N28D (antibody, IgG1, name in Kabat numbering, V domains shown)
VH: QVQLVESGGGVVQPGRSLRLSCAASGFTFSNAWMHWVRQAPGKGLEWVAQIKAKSNNYATYYAESVKGRFTISRDDSKNSLYLQMNSLKTEDTAVYYCRYVHYGAYYGVDAWGQGTTVTVSS
VL: DIVMTQSPLSLPVTPGEPASISCRSSQSLVHSDRNTYLHWYQQKPGQAPRLLIYKVSNRFSGVPDRFSGSGSGTDFTLKISRVEAEDVGVYYCGQGTQVPYTFGQGTKLEIK
B12: GLS3000 Q90Y (antibody, IgG1, name in Kabat numbering, V domains shown)
VH: QVQLVESGGGVVQPGRSLRLSCAASGFTFSNAWMHWVRQAPGKGLEWVAQIKAKSNNYATYYAESVKGRFTISRDDSKNSLYLQMNSLKTEDTAVYYCRYVHYGAYYGVDAWGQGTTVTVSS
VL: DIVMTQSPLSLPVTPGEPASISCRSSQSLVHSNRNTYLHWYQQKPGQAPRLLIYKVSNRFSGVPDRFSGSGSGTDFTLKISRVEAEDVGVYYCGYGTQVPYTFGQGTKLEIK
B13: GLS3000 S27eL (antibody, IgG1, name in Kabat numbering, V domains shown)
VH: QVQLVESGGGVVQPGRSLRLSCAASGFTFSNAWMHWVRQAPGKGLEWVAQIKAKSNNYATYYAESVKGRFTISRDDSKNSLYLQMNSLKTEDTAVYYCRYVHYGAYYGVDAWGQGTTVTVSS
VL: DIVMTQSPLSLPVTPGEPASISCRSSQSLVHLNRNTYLHWYQQKPGQAPRLLIYKVSNRFSGVPDRFSGSGSGTDFTLKISRVEAEDVGVYYCGQGTQVPYTFGQGTKLEIK
B14: GLS3000 S27eE (antibody, IgG1, name in Kabat numbering, V domains shown)
VH: QVQLVESGGGVVQPGRSLRLSCAASGFTFSNAWMHWVRQAPGKGLEWVAQIKAKSNNYATYYAESVKGRFTISRDDSKNSLYLQMNSLKTEDTAVYYCRYVHYGAYYGVDAWGQGTTVTVSS
VL: DIVMTQSPLSLPVTPGEPASISCRSSQSLVHENRNTYLHWYQQKPGQAPRLLIYKVSNRFSGVPDRFSGSGSGTDFTLKISRVEAEDVGVYYCGQGTQVPYTFGQGTKLEIK
B15: GLS3000 R29V (antibody, IgG1, name in Kabat numbering, V domains shown)
VH: QVQLVESGGGVVQPGRSLRLSCAASGFTFSNAWMHWVRQAPGKGLEWVAQIKAKSNNYATYYAESVKGRFTISRDDSKNSLYLQMNSLKTEDTAVYYCRYVHYGAYYGVDAWGQGTTVTVSS
VL: DIVMTQSPLSLPVTPGEPASISCRSSQSLVHSNVNTYLHWYQQKPGQAPRLLIYKVSNRFSGVPDRFSGSGSGTDFTLKISRVEAEDVGVYYCGQGTQVPYTFGQGTKLEIK
B16: GLS3000 V27cE (antibody, IgG1, name in Kabat numbering, V domains shown)
VH: QVQLVESGGGVVQPGRSLRLSCAASGFTFSNAWMHWVRQAPGKGLEWVAQIKAKSNNYATYYAESVKGRFTISRDDSKNSLYLQMNSLKTEDTAVYYCRYVHYGAYYGVDAWGQGTTVTVSS
VL: DIVMTQSPLSLPVTPGEPASISCRSSQSLEHSNRNTYLHWYQQKPGQAPRLLIYKVSNRFSGVPDRFSGSGSGTDFTLKISRVEAEDVGVYYCGQGTQVPYTFGQGTKLEIK
B17: GLS3000 R45Q (antibody, IgG1, name in Kabat numbering, V domains shown)
VH: QVQLVESGGGVVQPGRSLRLSCAASGFTFSNAWMHWVRQAPGKGLEWVAQIKAKSNNYATYYAESVKGRFTISRDDSKNSLYLQMNSLKTEDTAVYYCRYVHYGAYYGVDAWGQGTTVTVSS
VL: DIVMTQSPLSLPVTPGEPASISCRSSQSLVHSNRNTYLHWYQQKPGQAPQLLIYKVSNRFSGVPDRFSGSGSGTDFTLKISRVEAEDVGVYYCGQGTQVPYTFGQGTKLEIK
B18: GLS3000 R45D (antibody, IgG1, name in Kabat numbering, V domains shown)
VH: QVQLVESGGGVVQPGRSLRLSCAASGFTFSNAWMHWVRQAPGKGLEWVAQIKAKSNNYATYYAESVKGRFTISRDDSKNSLYLQMNSLKTEDTAVYYCRYVHYGAYYGVDAWGQGTTVTVSS
VL: DIVMTQSPLSLPVTPGEPASISCRSSQSLVHSNRNTYLHWYQQKPGQAPDLLIYKVSNRFSGVPDRFSGSGSGTDFTLKISRVEAEDVGVYYCGQGTQVPYTFGQGTKLEIK
B19: GLS3000 R45E (antibody, IgG1, name in Kabat numbering, V domains shown)
VH: QVQLVESGGGVVQPGRSLRLSCAASGFTFSNAWMHWVRQAPGKGLEWVAQIKAKSNNYATYYAESVKGRFTISRDDSKNSLYLQMNSLKTEDTAVYYCRYVHYGAYYGVDAWGQGTTVTVSS
VL: DIVMTQSPLSLPVTPGEPASISCRSSQSLVHSNRNTYLHWYQQKPGQAPELLIYKVSNRFSGVPDRFSGSGSGTDFTLKISRVEAEDVGVYYCGQGTQVPYTFGQGTKLEIK
B20: GLS3000 S25E (antibody, IgG1, name in Kabat numbering, V domains shown)
VH: QVQLVESGGGVVQPGRSLRLSCAASGFTFSNAWMHWVRQAPGKGLEWVAQIKAKSNNYATYYAESVKGRFTISRDDSKNSLYLQMNSLKTEDTAVYYCRYVHYGAYYGVDAWGQGTTVTVSS
VL: DIVMTQSPLSLPVTPGEPASISCRESQSLVHSNRNTYLHWYQQKPGQAPRLLIYKVSNRFSGVPDRFSGSGSGTDFTLKISRVEAEDVGVYYCGQGTQVPYTFGQGTKLEIK
B21: GLS3000 L27bE (antibody, IgG1, name in Kabat numbering, V domains shown)
VH: QVQLVESGGGVVQPGRSLRLSCAASGFTFSNAWMHWVRQAPGKGLEWVAQIKAKSNNYATYYAESVKGRFTISRDDSKNSLYLQMNSLKTEDTAVYYCRYVHYGAYYGVDAWGQGTTVTVSS
VL: DIVMTQSPLSLPVTPGEPASISCRSSQSEVHSNRNTYLHWYQQKPGQAPRLLIYKVSNRFSGVPDRFSGSGSGTDFTLKISRVEAEDVGVYYCGQGTQVPYTFGQGTKLEIK

molecular target: T1, CD3ε homodimer protein (human, UniProt P07766 23-126, limits assumed); test: SPR, CD3e immobilized
T1 construct: Whole entry named for the human CD3 epsilon chain
T1 sequence (P07766 23-126 limits assumed): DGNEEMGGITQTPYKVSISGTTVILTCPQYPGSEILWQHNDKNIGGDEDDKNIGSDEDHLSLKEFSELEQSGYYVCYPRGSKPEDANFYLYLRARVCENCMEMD
Experimental: Each one-amino acid altered form constructed, expressed, and purified in the paragraph (6-2) was evaluated using Biacore T200 (GE Healthcare Japan Corp.). An appropriate amount of CD3ε homodimer protein was immobilized onto Sensor chip CM4 (GE Healthcare Japan Corp.) by the amine coupling method. Then, the antibody having an appropriate concentration was injected thereto as an analyte and allowed to interact with the CD3ε homodimer protein on the sensor chip. Then, the sensor chip was regenerated by the injection of 10 mmol/L glycine-HCl (pH 1.5). The assay was conducted at 25° C., and HBS-EP+ (GE Healthcare Japan Corp.) was used as a running buffer. […] Each parameter was calculated using Biacore T200 Evaluation Software (GE Healthcare Japan Corp.).
Specifically, when the amount of the GLS3000-containing antibody bound was defined as X and the amount of the L chain one-amino acid altered form bound was defined as Y, a value of Z (ratio of amounts bound)=Y/X was used.

Point of comparison: B6, “KD ratio to GLS3000” value 2.53. Against it:
- B1 — lower, 2.3
- B2 — higher, 12.7
- B3 — lower, 1.61
- B4 — higher, 3.36
- B5 — lower, 1.32
- B7 — higher, 5.03
- B8 — higher, 7210
- B9 — higher, 85800
- B10 — lower, 1.01
- B11 — higher, 4460
- B12 — higher, 36.3
- B13 — lower, 1.66
- B14 — lower, 1.84
- B15 — higher, 3.25
- B16 — lower, 1.3
- B17 — lower, 0.98
- B18 — lower, 0.86
- B19 — lower, 1.01
- B20 — higher, 6.54
- B21 — higher, 26.8
